Data published in patent US20150216948A1, “CYTOCHROME P450 SUICIDE GENE SYSTEM” (priority 2012, published 2015).

Assays:
HepG2 cells [1] = assay: 4-IPO toxicity assay: survival of transduced HepG2 cells by flow cytometry (propidium iodine); format: cell-based, human; conditions: for 4-IPO processing activity / cell killing (in words): transduced cells challenged with 4-IPO
Excerpt: Initially, the serine at position 427 in the human CYP4B1 was mutated back to proline (h-P427), which is present at this position in all CYP4B1 proteins. Additionally a proline to serine exchange was created in the native rabbit CYP4B1 enzyme at the corresponding position 422 (r-P422). To immediately exclude the possibility that the different activities between human and the rabbit protein isoforms are simply due to differences in mRNA stability, the human CYP4B1 cDNA (SEQ ID NO.: 2) was optimized for human-codon usage (SEQ ID NO.: 3) by de novo synthesis with silent mutagenesis of the cDNA, thus removing internal TATA-boxes, instability motives, RNA secondary structures and (cryptic) splice donor/acceptor sites and ensuring an average GC content of around 60%. All cDNAs were cloned into the same lentiviral (LV) HIV1-based expression vector and LV supernatants produced by plasmid transfection in HEK293T cells. Subsequently, the two rabbit and the four human cDNAs were stably expressed in the human liver cell line HepG2. Stably expressing transduced cells were challenged after five days with increasing concentrations of 4-IPO for 24, 48 and 72 hours and then the survival of cells analyzed by flow cytometry using propidium iodine for live/dead cell discrimination.
(§1) Next, it was analyzed whether the different activities of the human and the rabbit proteins in processing 4-IPO could be explained by differences in protein half-life. However, as no antibody was available that can detect both CYP4B1 proteins, EGFP fusion constructs were generated. With these constructs, EGFP antibodies can be utilized to visualize and compare the expression levels and the half-lives of the fusion proteins in cells by western blots. EGFP expression can also be used for flow cytometry assessment of the expression levels due to the fluorescent properties of the fusion proteins. 5′- and 3′-fusions of EGFP with the native rabbit P422 and the human P427 CYP4B1 proteins were cloned in LV vectors with an IRES-NEO (NEO=neomycin phosphotransferase cDNA, npt II) and stably expressed in HepG2 cells (FIG. 3 B). For comparison, the corresponding IRES-EGFP constructs were also included, as these vectors had already been used in previous experiments and activity measurements thus already existed. Transduced cells were incubated for 24, 48 and 72 hours with increasing concentration of 4-IPO. Cultures were then harvested, cells stained with propidium iodine and subsequently analyzed for survival of transduced EGFP+ cells by flow cytometry (FIG. 3 A).

HepG2 cells [2] = assay: Half-life of CYP4B1/EGFP fusion proteins after cycloheximide (western blot, FACS); format: cell-based, human; conditions: EGFP fusion, 50 μg/ml cycloheximide, G418-selected HepG2 cells
Method: FIGS. 3 C and D show CYP4B1 stability as analysed by western blotting and by flow cytometry. The studies on protein expression and stability were performed with the rabbit and human CYP4B1/EGFP fusion construction in the lentiviral vector with the additional IRES-neomycin cassette. Half-life analysis was performed by adding 50 μg/ml cycloheximide to the transduced and G418-selected HepG2 cells. Samples were collected at the indicated time points.
as §1
After standard inhibition of de novo protein synthesis by cycloheximide, the half-life of the CYP4B1 proteins in stably transduced and G418-resistant HepG2 cells was assessed by determining the protein expression levels over time either in western blotting or in FACS analysis as EGFP fluorescence. […] For the human native protein (h-S427), the mean fluorescence indicates a short average half-life of only 6 hours.

primary human T-cells = assay: 4-IPO toxicity in transduced primary T-cells; format: cell-based; conditions: after 24 hours, 4-IPO, IRES-EGFP-WPRO vector, FIG. 17
Excerpt: Compared to the HepG2 liver cells, primary T-cells might not provide an optimal environment for the function of P450 cytochromes (although the necessary reductase is ubiquitously expressed) and the infection of primary T-cells is considerably more complex.
The T cells were isolated by Ficoll and stimulated with CD3, CD28 and IL2 for 3 days before they were infected with lentiviral vectors using fibronectin. For optimal toxicity in T cells, the suicide genes were not expressed as EGFP fusions proteins but a IRES-EGFP-WPRO vector construct was used. […] However, after 24 hours over 70% of the transgenic T cells were eliminated by CYP4B1 P427 mut12. […] The determination of the virus titer was based on the titration of the reference cell line HT1080.

B1: variant of hCYP4B1 having an insertion of a serine at position 207: human CYP4B1 variant with serine insertion at amino acid position 207 (protein, listed as Homo sapiens)
chain: MVPSFLSLSFSSLGLWASGLILVLGFLKLIHLLLRRQTLAKAMDKFPGPPTHWLFGHALEIQETGSLDKVVSWAHQFPYAHPLWFGQFIGFLNIYEPDYAKAVYSRGDPKAPDVYDFFLQWIGRGLLVLEGPKWLQHRKLLTPGFHYDVLKPYVAVFTESTRIMLDKWEEKAREGKSFDIFCDVGHMALNTLMKCTFGRGDTGLGHSRDSSYYLAVSDLTLLMQQRLVSFQYHNDFIYWLTPHGRRFLRACQVAHDHTDQVIRERKAALQDEKVRKKIQNRRHLDFLDILLGARDEDDIKLSDADLRAEVDTFMFEGHDTTTSGISWFLYCMALYPEHQHRCREEVREILGDQDFFQWDDLGKMTYLTMCIKESFRLYPPVPQVYRQLSKPVTFVDGRSLPAGSLISMHIYALHRNSAVWPDPEVFDSLRFSTENASKRHPFAFMPFSAGPRNCIGQQFAMSEMKVVTAMCLLRFEFSLDPSRLPIKMPQLVLRSKNGFHLHLKPLGPGSGK
modifications: serine insertion at 207
4-IPO processing activity / cell killing (in words) (HepG2 cells [1]): did not reveal any functional differences

B2: r-S422: rabbit CYP4B1 with proline-to-serine exchange at position 422 (protein, UniProt P15128 1-506, looked up, variant P422S)
Cytochrome P450 4B1: MLGFLSRLGLWASGLILILGFLKLLRLLLRRQRLARAMDSFPGPPTHWLFGHALEIQKTGSLDKVVTWTQQFPYAHPLWVGQFIGFLNIYEPDYAKAVYSRGDPKAPDVYDFFLQWIGKGLLVLDGPKWFQHRKLLTPGFHYDVLKPYVAIFADSTRIMLEKWEKKACEGKSFDIFSDVGHMALDTLMKCTFGKGDSGLNHRDSSYYVAVSELTLLMQQRIDSFQYHNDFIYWLTPHGRRFLRACRAAHDHTDRVIRQRKAALQDEKEREKIQNRRHLDFLDILLDVRGESGVQLSDTDLRAEVDTFMFEGHDTTTSGISWFLYCMALYPEHQQRCREEVREILGDQDSFQWEDLAKMTYLTMCMKECFRLYPPVPQVYRQLSKPVSFVDGRSLPAGSLISLHIYALHRNSDVWPDPEVFDSLRFSPENSSGRHPYAFIPFSAGPRNCIGQQFAMNEMKVVTALCLLRFEFSVDPLRLPIKLPQLVLRSKNGIHLYLKPLGPKAEK
protein half-life (HepG2 cells [2]): approx. 30 hours
transduced HepG2 cells eliminated / dead (HepG2 cells [1]; after 24 hours of 4-IPO treatment, FIG. 2): 73%

B3: CYP4B1 P427 mut18: modified human CYP4B1 P427 with sections 1+2+3 of the rabbit protein; differs in 19 amino acids (protein)
chain: MVPSFLSLSFSSLGLWASGLILVLGFLKLIHLLLRRQTLAKAMDKFPGPPTHWLFGHALEIQETGSLDKVVSWAHQFPYAHPLWFGQFIGFLNIYEPDYAKAVYSRGDPKAPDVYDFFLQWIGKGLLVLDGPKWFQHRKLLTPGFHYDVLKPYVAIFADSTRIMLEKWEKKACEGKSFDIFSDVGHMALDTLMKCTFGKGDSGLNHRDSSYYVAVSELTLLMQQRIDSFQYHNDFIYWLTPHGRRFLRACQVAHDHTDQVIRERKAALQDEKVRKKIQNRRHLDFLDILLGARDEDDIKLSDADLRAEVDTFMFEGHDTTTSGISWFLYCMALYPEHQHRCREEVREILGDQDFFQWDDLGKMTYLTMCIKESFRLYPPVPQVYRQLSKPVTFVDGRSLPAGSLISMHIYALHRNSAVWPDPEVFDPLRFSTENASKRHPFAFMPFSAGPRNCIGQQFAMSEMKVVTAMCLLRFEFSLDPSRLPIKMPQLVLRSKNGFHLHLKPLGPGSGK
4-IPO processing activity / cell killing (in words) (HepG2 cells [1]; listed as human P427 CYP4B1 protein with sections 1+2+3): almost as high as the activity of native rabbit protein
4-IPO processing activity / cell killing (in words) (HepG2 cells [1]; listed as modified human CYP4B1 P427 protein with sections 1+2+3 of the rabbit protein): increased activity for toxifying 4-IPO
cell survival rates (HepG2 cells [1]; within 72 hours upon applying 4-IPO, FIG. 6 D): about 10%

B4: CYP4B1 P427 mut12: modified human CYP4B1 P427 protein comprising 12 further amino acid exchanges found in other human CYP4 proteins (protein)
chain: MVPSFLSLSFSSLGLWASGLILVLGFLKLIHLLLRRQTLAKAMDKFPGPPTHWLFGHALEIQETGSLDKVVSWAHQFPYAHPLWFGQFIGFLNIYEPDYAKAVYSRGDPKAPDVYDFFLQWIGKGLLVLDGPKWFQHRKLLTPGFHYDVLKPYVAIFADSTRIMLDKWEKKAREGKSFDIFCDVGHMALDTLMKCTFGKGDSGLGHRDSSYYLAVSELTLLMQQRIVSFQYHNDFIYWLTPHGRRFLRACQVAHDHTDQVIRERKAALQDEKVRKKIQNRRHLDFLDILLGARDEDDIKLSDADLRAEVDTFMFEGHDTTTSGISWFLYCMALYPEHQHRCREEVREILGDQDFFQWDDLGKMTYLTMCIKESFRLYPPVPQVYRQLSKPVTFVDGRSLPAGSLISMHIYALHRNSAVWPDPEVFDPLRFSTENASKRHPFAFMPFSAGPRNCIGQQFAMSEMKVVTAMCLLRFEFSLDPSRLPIKMPQLVLRSKNGFHLHLKPLGPGSGK
transgenic T cells eliminated (primary human T-cells): over 70%
4-IPO processing activity / cell killing (in words) (HepG2 cells [1]): equally good killing curve as the modified human CYP4B1 P427 mut18

B5: modified human CYP4B1 P427 protein with the additional section 1 of the rabbit protein: differs in only four amino acid from the native human CYP4B1 protein (protein)
chain: MVPSFLSLSFSSLGLWASGLILVLGFLKLIHLLLRRQTLAKAMDKFPGPPTHWLFGHALEIQETGSLDKVVSWAHQFPYAHPLWFGQFIGFLNIYEPDYAKAVYSRGDPKAPDVYDFFLQWIGKGLLVLDGPKWFQHRKLLTPGFHYDVLKPYVAVFTESTRIMLDKWEEKAREGKSFDIFCDVGHMALNTLMKCTFGRGDTGLGHRDSSYYLAVSDLTLLMQQRLVSFQYHNDFIYWLTPHGRRFLRACQVAHDHTDQVIRERKAALQDEKVRKKIQNRRHLDFLDILLGARDEDDIKLSDADLRAEVDTFMFEGHDTTTSGISWFLYCMALYPEHQHRCREEVREILGDQDFFQWDDLGKMTYLTMCIKESFRLYPPVPQVYRQLSKPVTFVDGRSLPAGSLISMHIYALHRNSAVWPDPEVFDPLRFSTENASKRHPFAFMPFSAGPRNCIGQQFAMSEMKVVTAMCLLRFEFSLDPSRLPIKMPQLVLRSKNGFHLHLKPLGPGSGK
4-IPO processing activity / cell killing (in words) (HepG2 cells [1]): increased activity for toxifying 4-IPO

B6: coop H-P427: h-P427 expressed from cDNA optimized for human codon usage (protein, listed as Homo sapiens)
chain: MVPSFLSLSFSSLGLWASGLILVLGFLKLIHLLLRRQTLAKAMDKFPGPPTHWLFGHALEIQETGSLDKVVSWAHQFPYAHPLWFGQFIGFLNIYEPDYAKAVYSRGDPKAPDVYDFFLQWIGRGLLVLEGPKWLQHRKLLTPGFHYDVLKPYVAVFTESTRIMLDKWEEKAREGKSFDIFCDVGHMALNTLMKCTFGRGDTGLGHRDSSYYLAVSDLTLLMQQRLVSFQYHNDFIYWLTPHGRRFLRACQVAHDHTDQVIRERKAALQDEKVRKKIQNRRHLDFLDILLGARDEDDIKLSDADLRAEVDTFMFEGHDTTTSGISWFLYCMALYPEHQHRCREEVREILGDQDFFQWDDLGKMTYLTMCIKESFRLYPPVPQVYRQLSKPVTFVDGRSLPAGSLISMHIYALHRNSAVWPDPEVFDSLRFSTENASKRHPFAFMPFSAGPRNCIGQQFAMSEMKVVTAMCLLRFEFSLDPSRLPIKMPQLVLRSKNGFHLHLKPLGPGSGK
cell survival rates upon administration of 4-IPO (HepG2 cells [1]; transduced cells, FIG. 2): 37%
